# System: Bacillus subtilis
# Experiment: cleaved RNA product abundance (RNA/gDNA barcode ratio) relative to median wild-type variant (ratio to wild type); higher = more accumulation of the downstream cleavage product
# Settings: experiment (reporter, strain, medium): exp 8a: truncated aprE reporter, strain BJT201 with 2% xylose (RNase J1 expressed); cleavage site: glnRA (positions -5 to +31 mutated)
# In short: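 Sequencing of barcodes from gel-selected, reverse-transcribed cleaved RNA and from genomic DNA, with UMI collapsing, yielded a per-construct RNA:gDNA ratio. Scaled to the median construct with the unmutated site, this ratio is the cleaved product abundance. The barcoded reporters (truncated aprE or tetM mRNAs with mutagenized RNase Y cleavage-site windows) were integrated into the B. subtilis chromosome, and cultures grew in LB at 37°C from OD600 0.0003 to 0.3.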
row,Sequence,cleaved RNA product abundance
1,CGACATGTCCCGCTTCTTTCATTAATCCGTTAGCAACTGTTTTTCAATATACATTTACCTTTTAAGAGGAGGAAT,0.551
2,CGACATGTCCCGCTTCTTTCATTAATCCGTTAGCAACTGTTTTTCTAGATACATTTACCTTTTAAGAGGAGGAAT,0.378
3,CGACATGTCCCGCTTCTTTCATTAATCCGTTAGCAACTGTTTTTCTATAAACATTTACCTTTTAAGAGGAGGAAT,0.459
4,CGACATGTCCCGCTTCTTTCATTAATCCGTTAGCAACTGTTTTTCTATATACAATTACCTTTTAAGAGGAGGAAT,0.846
5,CGACATGTCCCGCTTCTTTCATTAATCCGTTAGCAACTGTTTTTCTATATACACTTACCTTTTAAGAGGAGGAAT,0.721
6,CGACATGTCCCGCTTCTTTCATTAATCCGTTAGCAACTGTTTTTCTATATACATATACCTTTTAAGAGGAGGAAT,0.656
7,CGACATGTCCCGCTTCTTTCATTAATCCGTTAGCAACTGTTTTTCTATATACATTTAACTTTTAAGAGGAGGAAT,0.675
8,CGACATGTCCCGCTTCTTTCATTAATCCGTTAGCAACTGTTTTTCTATATACATTTACATTTTAAGAGGAGGAAT,0.576
9,CGACATGTCCCGCTTCTTTCATTAATCCGTTAGCAACTGTTTTTCTATATACATTTACCTTTTAAGAGGAGGAAT,0.576
10,CGACATGTCCCGCTTCTTTCATTAATCCGTTAGCAACTGTTTTTCTATATACATTTACGTTTTAAGAGGAGGAAT,0.305
11,CGACATGTCCCGCTTCTTTCATTAATCCGTTAGCAACTGTTTTTCTATATACATTTTACCTTTTAAGAGGAGGAA,0.435
12,CGACATGTCCCGCTTCTTTCATTAATCCGTTAGCAACTGTTTTTCTATATAGATTTACCTTTTAAGAGGAGGAAT,0.925
13,CGACATGTCCCGCTTCTTTCATTAATCCGTTAGCAACTGTTTTTCTATATATATTTACCTTTTAAGAGGAGGAAT,0.668
14,CGACATGTCCCGCTTCTTTCATTAATCCGTTAGCAACTGTTTTTCTATATTCATTTACCTTTTAAGAGGAGGAAT,0.189
15,CGACATGTCCCGCTTCTTTCATTAATCCGTTAGCAACTGTTTTTCTCTATACATTTACCTTTTAAGAGGAGGAAT,0.337
16,CGACATGTCCCGCTTCTTTCATTAATCCGTTAGCAACTGTTTTTCTGTATACATTTACCTTTTAAGAGGAGGAAT,0.357
17,CGACATGTCCCGCTTCTTTCATTAATCCGTTAGCAACTGTTTTTGCTATATACATTTACCTTTTAAGAGGAGGAA,0.946
18,CGACATGTCCCGCTTCTTTCATTAATCCGTTAGCAACTGTTTTTGTATATACATTTACCTTTTAAGAGGAGGAAT,0.494
19,CGACATGTCCCGCTTCTTTCATTAATCCGTTAGCAACTGTTTTTTTATATACATTTACCTTTTAAGAGGAGGAAT,0.718
20,CGACATGTCCCGCTTCTTTCATTAATCCGTTAGCAACTTATTTGCTATATACATTTACCTTTTAAGAGGAGGAAT,1.85
21,CGACATGTCCCGCTTCTTTCATTAATCCGTTAGCAACTTGTTTTGCTATATACATTTACCTTTTAAGAGGAGGAA,1.01
22,CGACATGTCCCGCTTCTTTCATTAATCCGTTAGCAACTTTATTGCTATATACATTTACCTTTTAAGAGGAGGAAT,0.922

row,Sequence,cleaved RNA product abundance
1,CGACATGTCCCGCTTCTTTCATTAATCCGTTAGCAACTTTTGTGCTATATACATTTACCTTTTAAGAGGAGGAAT,1.05
2,CGACATGTCCCGCTTCTTTCATTAATCCGTTAGCAACTTTTTAGCTATATACATTTACCTTTTAAGAGGAGGAAT,0.565
3,CGACATGTCCCGCTTCTTTCATTAATCCGTTAGCAACTTTTTCGCTATATACATTTACCTTTTAAGAGGAGGAAT,0.662
4,CGACATGTCCCGCTTCTTTCATTAATCCGTTAGCAACTTTTTGGCTATATACATTTACCTTTTAAGAGGAGGAAT,0.563
5,CGACATGTCCCGCTTCTTTCATTAATCCGTTAGCAACTTTTTTACTATATACATTTACCTTTTAAGAGGAGGAAT,0.744
6,CGACATGTCCCGCTTCTTTCATTAATCCGTTAGCAACTTTTTTCCTATATACATTTACCTTTTAAGAGGAGGAAT,0.697
7,CGACATGTCCCGCTTCTTTCATTAATCCGTTAGCAACTTTTTTGCAATATACATTTACCTTTTAAGAGGAGGAAT,0.494
8,CGACATGTCCCGCTTCTTTCATTAATCCGTTAGCAACTTTTTTGCTATAAACATTTACCTTTTAAGAGGAGGAAT,1.58
9,CGACATGTCCCGCTTCTTTCATTAATCCGTTAGCAACTTTTTTGCTATATACAATTACCTTTTAAGAGGAGGAAT,1.63
10,CGACATGTCCCGCTTCTTTCATTAATCCGTTAGCAACTTTTTTGCTATATACATATACCTTTTAAGAGGAGGAAT,2.12
11,CGACATGTCCCGCTTCTTTCATTAATCCGTTAGCAACTTTTTTGCTATATACATTTAACTTTTAAGAGGAGGAAT,1.81
12,CGACATGTCCCGCTTCTTTCATTAATCCGTTAGCAACTTTTTTGCTATATACATTTACATTTTAAGAGGAGGAAT,1.72
13,CGACATGTCCCGCTTCTTTCATTAATCCGTTAGCAACTTTTTTGCTATATACATTTACCATTTAAGAGGAGGAAT,1.97
14,CGACATGTCCCGCTTCTTTCATTAATCCGTTAGCAACTTTTTTGCTATATACATTTACCGTTTAAGAGGAGGAAT,1.51
15,CGACATGTCCCGCTTCTTTCATTAATCCGTTAGCAACTTTTTTGCTATATACATTTACCTTTTAAGAGGAGGAAT,1.24
16,CGACATGTCCCGCTTCTTTCATTAATCCGTTAGCAACTTTTTTGCTATATACATTTACTTTTTAAGAGGAGGAAT,1.37
17,CGACATGTCCCGCTTCTTTCATTAATCCGTTAGCAACTTTTTTGCTATATACATTTTCCTTTTAAGAGGAGGAAT,0.343
18,CGACATGTCCCGCTTCTTTCATTAATCCGTTAGCAACTTTTTTGCTATATATATTTACCTTTTAAGAGGAGGAAT,0.911
19,CGACATGTCCCGCTTCTTTCATTAATCCGTTAGCAACTTTTTTGCTATATTCATTTACCTTTTAAGAGGAGGAAT,0.521
20,CGACATGTCCCGCTTCTTTCATTAATCCGTTAGCAACTTTTTTGTTATATACATTTACCTTTTAAGAGGAGGAAT,0.748
21,CGACATGTCCCGCTTCTTTCATTAATCCGTTAGCAACTTTTTTTCTATATACATTTACCTTTTAAGAGGAGGAAT,0.658
22,CGACATGTCCCGCTTCTTTCATTAATCCGTTAGCAAGCGTTTTGCTATATACATTTACCTTTTAAGAGGAGGAAT,0.684

row,Sequence,cleaved RNA product abundance
1,CGACATGTCCCGCTTCTTTCATTAATCCGTTAGCAAGTGATTTGCTATATACATTTACCTTTTAAGAGGAGGAAT,1.25
2,CGACATGTCCCGCTTCTTTCATTAATCCGTTAGCAAGTGTTATGCTATATACATTTACCTTTTAAGAGGAGGAAT,0.19
3,CGACATGTCCCGCTTCTTTCATTAATCCGTTAGCAAGTGTTTTACTATATACATTTACCTTTTAAGAGGAGGAAT,0.824
4,CGACATGTCCCGCTTCTTTCATTAATCCGTTAGCAAGTGTTTTGCTAAATACATTTACCTTTTAAGAGGAGGAAT,0.596
5,CGACATGTCCCGCTTCTTTCATTAATCCGTTAGCAAGTGTTTTGCTATAAACATTTACCTTTTAAGAGGAGGAAT,0.659
6,CGACATGTCCCGCTTCTTTCATTAATCCGTTAGCAAGTGTTTTGCTATATAAATTTACCTTTTAAGAGGAGGAAT,0.803
7,CGACATGTCCCGCTTCTTTCATTAATCCGTTAGCAAGTGTTTTGCTATATACATCTACCTTTTAAGAGGAGGAAT,0.494
8,CGACATGTCCCGCTTCTTTCATTAATCCGTTAGCAAGTGTTTTGCTATATACATTTACCTTTTAAGAGGAGGAAT,0.995
9,CGACATGTCCCGCTTCTTTCATTAATCCGTTAGCAAGTGTTTTGCTATATACATTTACTTTTTAAGAGGAGGAAT,1.39
10,CGACATGTCCCGCTTCTTTCATTAATCCGTTAGCAAGTGTTTTGCTATATACATTTAGCTTTTAAGAGGAGGAAT,1.43
11,CGACATGTCCCGCTTCTTTCATTAATCCGTTAGCAAGTGTTTTGCTATATCCATTTACCTTTTAAGAGGAGGAAT,0.273
12,CGACATGTCCCGCTTCTTTCATTAATCCGTTAGCAAGTGTTTTGCTATATTCATTTACCTTTTAAGAGGAGGAAT,0.488
13,CGACATGTCCCGCTTCTTTCATTAATCCGTTAGCAAGTGTTTTGCTATTTACATTTACCTTTTAAGAGGAGGAAT,0.163
14,CGACATGTCCCGCTTCTTTCATTAATCCGTTAGCAAGTGTTTTGCTTTATACATTTACCTTTTAAGAGGAGGAAT,0.474
15,CGACATGTCCCGCTTCTTTCATTAATCCGTTAGCAAGTGTTTTGTTATATACATTTACCTTTTAAGAGGAGGAAT,0.21
16,CGACATGTCCCGCTTCTTTCATTAATCCGTTAGCAAGTGTTTTTCTATATACATTTACCTTTTAAGAGGAGGAAT,0.603
17,CGACATGTCCCGCTTCTTTCATTAATCCGTTAGCAAGTTTTTTGCTATATACATTTACCTTTTAAGAGGAGGAAT,0.974
18,CGACATGTCCCGCTTCTTTCATTAATCCGTTAGCAATCGTTTTGCTATATACATTTACCTTTTAAGAGGAGGAAT,1.11
19,CGACATGTCCCGCTTCTTTCATTAATCCGTTAGCAATGGTTTTGCTATATACATTTACCTTTTAAGAGGAGGAAT,1.08
20,CGACATGTCCCGCTTCTTTCATTAATCCGTTAGCAATTATTTTGCTATATACATTTACCTTTTAAGAGGAGGAAT,1.14
21,CGACATGTCCCGCTTCTTTCATTAATCCGTTAGCAATTGTGTTGCTATATACATTTACCTTTTAAGAGGAGGAAT,0.947
22,CGACATGTCCCGCTTCTTTCATTAATCCGTTAGCAATTGTTTAGCTATATACATTTACCTTTTAAGAGGAGGAAT,0.468
